Experimental data: PMC4176358

The sequences below were run against T1, VqsMt (truncated VqsM) (Pseudomonas aeruginosa PAO1) (UniProt Q9I1P2) (assay: EMSA). Settings: 20 mM Tris-HCl pH 7.4, 50 mM KCl, 5 mM MgCl2, 10% glycerol, 3 ug/ml sheared salmon sperm DNA; room temperature 20 min; DNA 40-50 nM (footprint DNase I at 25 C).
T1 sequence: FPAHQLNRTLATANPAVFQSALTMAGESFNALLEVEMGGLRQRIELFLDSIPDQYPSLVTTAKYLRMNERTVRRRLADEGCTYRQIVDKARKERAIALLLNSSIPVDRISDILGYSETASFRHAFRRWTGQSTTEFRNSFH

Row | Sequence | binding
1 | AAAAAGCCTCCGTCATTCCTCATTGCAGTAAGCCCTGATCGATAAAATGCATCACAGCAGAATTGGCCCGGGGTATGACGCTGTCAAGCGCGCAGCCTTGCCGATACGGCAAAATCATGGCAACCCTATCTGTTATGCCAGCACCGTTCAGGACGCAGCCTTCAGCCATCGAGCATCCCCCTCCCTATGACAACGTTCGACCACCTGGGCCGCTTTACCGCAAGCGATACTGTGCGGTTGTGACAATTCCATGAAACGC (double strand) [rhlR promoter] | no binding
2 | AAAAGGCGGCATCCCTACCCTGATACTCCTGGGCCCTCTCAGTCGGAGGACATACCAGCACACACATGAGGGGGAAGACTAAAGGAGGATGAACGGCAGGCAACCTGCCAGATCTGGTAGGGCGCGCCGACCGGCGCGCCCTGCGCTTCAGATGAGACCCAGCGCCGCGGCGTAGGCGGCAGCCAGCGTCTTGTTCGGCGCGTCGAACTTCTTCTGGATGTTC (double strand) [rhlI promoter] | no binding
3 | TAAAGATGGACGCTGGTTTGCGCAGCCCATGCACTGTCCGCCGCTGTCGCACCGATCGTCGTCAGGATCGATAACGCCAGTGCACAAACTTTTTTCATTGGATTTCCTTTCCGAAACGAAACAAGTTGGATTTTGCACCTACCAGAACTGGTAGTTCTGACCTGTGGCTATCTTCGAAGGCATCGATATTATGCACATTGGAACTCTTCATGACATAACGCCGAGTGACT (double strand) [vqsR promoter] | no binding
